According to publication PMC6821609:

T1: HNF4α (hepatocyte nuclear factor 4α) (Homo sapiens, UniProt P41235 1-474)
T1 sequence: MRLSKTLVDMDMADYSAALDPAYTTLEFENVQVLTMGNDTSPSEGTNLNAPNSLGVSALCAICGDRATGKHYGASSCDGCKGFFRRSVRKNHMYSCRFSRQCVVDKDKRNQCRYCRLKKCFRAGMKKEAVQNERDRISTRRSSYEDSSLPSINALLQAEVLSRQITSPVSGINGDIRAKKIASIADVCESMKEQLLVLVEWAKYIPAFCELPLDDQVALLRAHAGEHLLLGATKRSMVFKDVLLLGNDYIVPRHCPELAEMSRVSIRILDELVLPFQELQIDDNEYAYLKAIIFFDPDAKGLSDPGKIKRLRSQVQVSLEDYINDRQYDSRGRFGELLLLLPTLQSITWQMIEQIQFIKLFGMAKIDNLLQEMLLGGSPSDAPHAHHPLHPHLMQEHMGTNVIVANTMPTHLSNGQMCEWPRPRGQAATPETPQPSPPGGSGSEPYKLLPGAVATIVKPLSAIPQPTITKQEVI


Molecular target: T1, HNF4α (hepatocyte nuclear factor 4α)
Assay: EMSA

| Binder | binding result |
| --- | --- |
| F9-wt (cfa_F9n_wt_Biotin) (dsDNA) DNA 1: CAGAAGTAAATACAGCTCAACTTGTACTTTGGAACAACTGGTCAACC DNA 2: GGTTGACCAGTTGTTCCAAAGTACAAGTTGAGCTGTATTTACTTCTG | binds |
| F9-mut (cfa_F9n_mut_Biotin) (dsDNA) DNA 1: CCAGAAGTAAATACAGCTCAACTTGTATTTGGAACAACTGGTCAACC DNA 2: GGTTGACCAGTTGTTCCAAATACAAGTTGAGCTGTATTTACTTCTGG | no binding |
